Reference: publication PMC7145715

Biological target: KDM4B (1-350) (UniProt O94953 1-350)
Test: EMSA

Sequence of KDM4B (1-350) (O94953 1-350): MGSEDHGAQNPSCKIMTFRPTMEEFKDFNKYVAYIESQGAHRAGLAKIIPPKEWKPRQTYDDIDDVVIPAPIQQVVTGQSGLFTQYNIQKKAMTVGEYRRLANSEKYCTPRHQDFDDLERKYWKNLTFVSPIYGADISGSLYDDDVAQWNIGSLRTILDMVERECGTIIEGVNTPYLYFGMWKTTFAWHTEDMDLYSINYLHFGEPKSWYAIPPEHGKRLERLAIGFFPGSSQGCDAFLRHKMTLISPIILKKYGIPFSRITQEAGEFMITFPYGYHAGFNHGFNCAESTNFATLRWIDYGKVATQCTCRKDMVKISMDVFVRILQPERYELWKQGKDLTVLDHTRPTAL

CUCAUCUCCAGUCUGAGUAAUAAUGCUUAUAGUAUUAUGG (ssRNA) [WT-4BRBS (AR-A2)]: binds.
